According to article doi:10.1101/2021.09.16.460643 (bioRxiv, 2021):

Key:
[1] = target: receiver domain of ARABIDOPSIS … KINASE 5 (AHK5RD), labelled with Alexa Fluor-488 (Arabidopsis thaliana) (UniProt Q3S4A7); test: MST
[2] = target: T1, ETR1 fragment comprising both HK and RD domain (ETR1HK-RD) (Arabidopsis thaliana, UniProt P49333 324-738); test: MST
T1 sequence (looked up): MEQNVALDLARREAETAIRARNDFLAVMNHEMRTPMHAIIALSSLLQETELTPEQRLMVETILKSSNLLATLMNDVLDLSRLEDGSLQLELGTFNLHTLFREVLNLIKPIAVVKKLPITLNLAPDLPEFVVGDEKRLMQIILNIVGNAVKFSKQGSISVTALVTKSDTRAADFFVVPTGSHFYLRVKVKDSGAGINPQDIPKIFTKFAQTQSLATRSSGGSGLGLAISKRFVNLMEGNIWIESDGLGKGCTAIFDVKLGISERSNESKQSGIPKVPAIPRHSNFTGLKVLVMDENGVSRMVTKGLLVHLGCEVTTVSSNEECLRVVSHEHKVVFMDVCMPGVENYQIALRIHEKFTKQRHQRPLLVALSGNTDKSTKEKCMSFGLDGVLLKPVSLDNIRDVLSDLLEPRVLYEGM

How did the Kd [1] turn out when “histidine kinase domain of ETHYLENE RESPONSE 1 (ETR1HK) (domain or fragment)” was run?
The Kd was 166 µM.

B1: receiver domain of ARABIDOPSIS … KINASE 5 (AHK5RD), labelled with Alexa Fluor-488 (domain or fragment, Arabidopsis thaliana)
chain: ETSKPKILLVEDNKINIMVAKSMMKQLGHTMDIANNGVEAITAINSSSYDLVLMDVCMPVLDGLKATRLIRSYEETGNWNAAIEAGVDISTSENEQVCMRPTNRLPIIAMTANTLAESSEECYANGMDSFISKPVTLQKLRECLQQYLH
modifications: Alexa Fluor-488 label (site not stated; printed as Alexa-Fluor 484 in the anisotropy methods)
With B1 as the molecule, how does the Kd [2] read?
Its Kd is 167 ± 50 µM.
